Results published in patent US9012166B2, “Method for assaying histone methylation enzyme activity” (Kyushu Institute of Technology, priority 2010, dated 2015).
*: point of attachment. AMC = Cc1cc(=O)oc2cc(N*)ccc12

Biological target: T1, G9a (GST-mG9a) (Mus musculus, UniProt Q9Z148)
T1 sequence (Q9Z148 1-1263): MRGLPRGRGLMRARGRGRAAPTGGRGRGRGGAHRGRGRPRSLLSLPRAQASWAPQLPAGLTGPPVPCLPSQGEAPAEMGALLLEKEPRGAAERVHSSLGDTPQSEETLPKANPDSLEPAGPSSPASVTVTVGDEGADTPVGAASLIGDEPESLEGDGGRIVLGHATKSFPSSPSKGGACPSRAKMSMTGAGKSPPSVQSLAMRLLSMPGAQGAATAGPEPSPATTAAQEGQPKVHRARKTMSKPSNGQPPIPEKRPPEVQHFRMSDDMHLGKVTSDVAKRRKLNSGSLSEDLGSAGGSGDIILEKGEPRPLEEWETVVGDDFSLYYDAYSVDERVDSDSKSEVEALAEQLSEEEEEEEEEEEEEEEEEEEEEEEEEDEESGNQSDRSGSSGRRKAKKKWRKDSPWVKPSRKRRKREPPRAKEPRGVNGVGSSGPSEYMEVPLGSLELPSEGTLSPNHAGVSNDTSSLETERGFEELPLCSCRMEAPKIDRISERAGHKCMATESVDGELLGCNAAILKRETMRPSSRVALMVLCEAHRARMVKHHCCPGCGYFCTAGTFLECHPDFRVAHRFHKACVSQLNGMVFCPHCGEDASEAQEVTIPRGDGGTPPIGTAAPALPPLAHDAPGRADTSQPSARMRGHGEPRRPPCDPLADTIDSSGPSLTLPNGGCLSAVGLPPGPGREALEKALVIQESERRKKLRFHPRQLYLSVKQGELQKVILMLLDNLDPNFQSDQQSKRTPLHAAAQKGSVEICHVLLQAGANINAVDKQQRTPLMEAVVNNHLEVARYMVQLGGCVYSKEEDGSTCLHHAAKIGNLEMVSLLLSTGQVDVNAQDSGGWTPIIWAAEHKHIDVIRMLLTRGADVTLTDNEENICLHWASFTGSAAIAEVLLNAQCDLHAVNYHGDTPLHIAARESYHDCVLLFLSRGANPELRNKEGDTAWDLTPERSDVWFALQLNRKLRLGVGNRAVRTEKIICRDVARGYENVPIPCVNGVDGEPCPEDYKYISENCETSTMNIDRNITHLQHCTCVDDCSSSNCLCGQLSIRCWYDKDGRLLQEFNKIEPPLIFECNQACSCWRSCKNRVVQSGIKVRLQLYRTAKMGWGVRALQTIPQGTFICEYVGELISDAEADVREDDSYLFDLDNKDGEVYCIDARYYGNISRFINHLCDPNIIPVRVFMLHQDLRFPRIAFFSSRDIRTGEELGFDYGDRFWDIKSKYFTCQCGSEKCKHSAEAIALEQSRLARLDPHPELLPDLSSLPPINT
Experiment: Substrate specificity / methylation of substrate compounds by G9a
Assay type: biochemical
Settings: for methylation of peptidyl MCA by G9a: Example 6, GST-mG9a 0-0.15 μg/μL, left panel of FIG. 14; for methylation of peptidyl MCA by GST-mG9a: Example 13, AMC and peptidyl MCA fluorescence, FIGS. 25 and 26
Description: Distilled water was added to 10 μL of 2×HMT buffer (100 mM Tris-HCl (pH 8.5), 20 mM MgCl2, 40 mM KCl, 20 mM 2-mercaptoethanol, 500 mM sucrose), 2 μL of a BSA solution (30 μg/mL), and a predetermined concentration (final concentration: 0, 0.015, 0.05, or 0.15 μg/μL) of a histone methyltransferase (G9a) solution to adjust the total volume to 16 μL. Thereafter, the resultant solution was incubated at room temperature for 1 hour. Then, 2 μL of S-adenosylmethionine (SAM) (10 mM) and 2 μL of BocLysMCA (final concentration: 0.009 mM, 0.03 mM, or 0.09 mM) were added thereto, which was mixed and then incubated at 37° C. for 1 hour. Subsequently, 30 μL of a trypsin solution (20 mg/mL) was added thereto, followed by incubation at 37° C. for 15 minutes. The fluorescence intensity of the solution was measured at an excitation wavelength (λex) of 390 nm and a fluorescence wavelength (λem) of 460 nm.
When G9a was adopted as a histone methyltransferase, the following method was used. 10 μL of 2×HMT buffer (100 mM Tris-HCl (pH 8.5), 20 mM MgCl2, 40 mM KCl, 20 mM 2-mercaptoethanol, 500 mM sucrose), 0.4 μL of a BSA solution (150 μg/mL), 4.5 μL of GST-mG9a (0, 0.022 to 0.66 μg/μL), and 1.1 μL of distilled water were mixed and then incubated at room temperature for 1 hour. Then, 2 μL of SAM (10 mM) and 2 μL of a peptidyl MCA solution (0.6 mM) were added thereto, which was then incubated at 37° C. for 1 hour. Thereafter, 30 μL of a trypsin solution (20 mg/mL) was added thereto, followed by incubation at 37° C. for 15 minutes. Then, the fluorescence intensity of the solution was measured at an excitation wavelength (λex) of 390 nm and a fluorescence wavelength (λem) of 460 nm. The final concentration of GST-mG9a during the measurement of fluorescence intensity was 0, 0.005, 0.015, 0.05, or 0.15 μg/μL. The results of the assay for measuring histone methyltransferase activity are shown in the left panel of FIG. 14.
When G9a was adopted as a histone methyltransferase, the following method was used. 10 μL of 2×HMT buffer (100 mM Tris-HCl (pH 8.5), 20 mM MgCl2, 40 mM KCl, 20 mM 2-mercaptoethanol, 500 mM sucrose), 0.4 μL of a BSA solution (150 μg/mL), 3.6 μL of GST-mG9a (0, 0.028, 0.083, 0.28, 0.83 μg/μL), and 4 μL of distilled water were mixed and then incubated at room temperature for 1 hour. Then, 1 μL of SAM (20 mM) and 1 μL of a peptidyl MCA solution (1.2 mM) were added thereto, which was then incubated at 37° C. for 1 hour. Thereafter, 30 μL of a trypsin solution (20 mg/mL) was added thereto, followed by incubation at 37° C. for 15 minutes. Then, the fluorescence intensity of the solution was measured at an excitation wavelength (λex) of 390 nm and a fluorescence wavelength (λem) of 460 nm. The final concentration of GST-mG9a during the measurement of fluorescence intensity was 0, 0.005, 0.015, 0.05, or 0.15 μg/μL. The results of the assay for measuring histone methyltransferase activity are shown in the left panel of FIG. 16.
When G9a was adopted as a histone methyltransferase, the following method was used. 10 μL of 2×HMT buffer (100 mM Tris-HCl (pH 8.5), 20 mM MgCl2, 40 mM KCl, 20 mM 2-mercaptoethanol, 500 mM sucrose), 0.4 μL of a BSA solution (150 μg/mL), 4 μL of GST-mG9a (0, 0.025 to 0.75 μg/μL), and 3.6 μL of distilled water were mixed and then incubated at room temperature for 1 hour. Then, 1 μL of SAM (final concentration: 1 mM) and 1 μL, of a peptidyl MCA solution (1.2 mM) were added thereto, which was then incubated at 37° C. for 1 hour. Thereafter, 30 μL of a trypsin solution (20 mg/mL) was added thereto, followed by incubation at 37° C. for 15 minutes. Then, the fluorescence intensity of the solution was measured at an excitation wavelength (λex) of 330 nm and a fluorescence wavelength (λem) of 380 nm or at an excitation wavelength (λex) of 390 nm and a fluorescence wavelength (λem) of 460 nm. The final concentration of GST-mG9a during the measurement of fluorescence intensity was 0, 0.005, 0.015, 0.05, or 0.15 μg/μL.

| Compound | methylation of peptidyl MCA by G9a | methylation of peptidyl MCA by GST-mG9a | fluorescence intensity of AMC after G9a reaction and trypsin (Example 4, BocLysMCA 0.009 mM to 0.09 mM, G9a 0-0.15 μg/μL, FIG. 9) |
| --- | --- | --- | --- |
| Ac-QTARK-MCA [Ac-histone H3 (5-9)-MCA] | methylation often occurred | – | – |
| Ac-KRSK-MCA (Ac-KRSK-{AMC}; SMILES CC(=O)N[C@@H](CCCCN)C(=O)N[C@@H](CCCNC(=N)N)C(=O)N[C@@H](CO)C(=O)N[C@@H](CCCCN)C(=O)Nc1ccc2c(C)cc(=O)oc2c1; listed as Homo sapiens) [Ac-ERα (299-302)-MCA] | – | does not methylate | – |
| Cc1cc(=O)oc2cc(NC(=O)C(CCCCN)NC(=O)OC(C)(C)C)ccc12 (stereo not shown) [BocLysMCA, Boc-K-MCA] | – | – | decreased in a manner dependent on the concentration of the histone methyltransferase G9a |
| Ac-ARTKQTARK-MCA [Ac-histone H3 (1-9)-MCA] | methylation often occurred | methylates | – |
| Ac-QLATKAARK-MCA (Ac-QLATKAARK-{AMC}; SMILES CC(=O)N[C@@H](CCC(N)=O)C(=O)N[C@@H](CC(C)C)C(=O)N[C@@H](C)C(=O)N[C@H](C(=O)N[C@@H](CCCCN)C(=O)N[C@@H](C)C(=O)N[C@@H](C)C(=O)N[C@@H](CCCNC(=N)N)C(=O)N[C@@H](CCCCN)C(=O)Nc1ccc2c(C)cc(=O)oc2c1)[C@@H](C)O; listed as Homo sapiens) [Ac-histone H3 (19-27)-MCA] | methylation often occurred | – | – |
| Ac-ARTK-MCA (Ac-ARTK-{AMC}; SMILES CC(=O)N[C@@H](C)C(=O)N[C@@H](CCCNC(=N)N)C(=O)N[C@H](C(=O)N[C@@H](CCCCN)C(=O)Nc1ccc2c(C)cc(=O)oc2c1)[C@@H](C)O; listed as Homo sapiens) [Ac-histone H3 (1-4)-MCA] | little methylation occurred | – | – |
| Ac-ARK-MCA (Ac-Ala-Arg-Lys-{AMC}; SMILES CC(=O)N[C@@H](C)C(=O)N[C@@H](CCCNC(=N)N)C(=O)N[C@@H](CCCCN)C(=O)Nc1ccc2c(C)cc(=O)oc2c1; listed as Homo sapiens) [Ac-histone H3 (7-9/25-27)-MCA, acetyl-ARK (human histone H3 7-9 or 25-27)-MCA substrate] | methylation often occurred | – | – |
| Ac-LKSK-MCA (Ac-LKSK-{AMC}; SMILES CC(=O)N[C@@H](CC(C)C)C(=O)N[C@@H](CCCCN)C(=O)N[C@@H](CO)C(=O)N[C@@H](CCCCN)C(=O)Nc1ccc2c(C)cc(=O)oc2c1; listed as Homo sapiens) [Ac-p53 (369-372)-MCA] | little methylation occurred | – | – |
| Ac-KAARK-MCA (Ac-KAARK-{AMC}; SMILES CC(=O)N[C@@H](CCCCN)C(=O)N[C@@H](C)C(=O)N[C@@H](C)C(=O)N[C@@H](CCCNC(=N)N)C(=O)N[C@@H](CCCCN)C(=O)Nc1ccc2c(C)cc(=O)oc2c1; listed as Homo sapiens) [Ac-histone H3 (23-27)-MCA] | methylation often occurred | – | – |
